Laboratory results as given in patent US20250073303A1, “TDP-43 Interference Peptides, Methods, and Uses Thereof” (The University of British Columbia, priority 2022, published 2025).

Assays:
TDP-43 [1] = molecular target: TDP-43 (Homo sapiens, UniProt Q13148); assay: Sodium arsenite induced TDP-43 and phosphoTDP-43 accumulation and PARP cleavage in SH-SY5Y cells; format: cell-based; conditions: 1 mM sodium arsenite for 3 hours
Procedure: FIG. 5. Synthetic peptides derived from CK-1δ block TDP-43 phosphorylation, aggregation and partially rescue cell death in different cellular models. […] DAPI (Blue) staining was used to determine nuclear localization. […] Representative immunoblots showing efficient siRNA knockdown of CK-1δ in SH-SY5Y cells. […] (C) Representative immunoblots showing effective blocking of TDP-43 phosphorylation and aggregation by 20 μM peptide mixture in SH-SY5Y cells, but not in HEK293 cells with ethacrynic acid (EA) treatment. (D) Dose response of peptide mixture on blocking TDP-43 aggregation in primary cultured neurons treated with 20 μM ethacrynic acid. Quantification of insoluble TDP-43 expression was shown on the right. […] The significance among the groups was calculated by one-way ANOVA, *p<0.05. The statistical significance of the difference between scramble peptides and peptide mixture groups was calculated by student's t test, #p<0.05. […] Significant differences among the groups was calculated by One-way ANOVA, *p<0.05. Significance between scramble peptides and peptide mixture group was calculated by student's t test, #p<0.05. (G) Peptide D and the peptide mixture reduces TDP-43 phosphorylation and aggregation in SH-SY5Y cells following sodium arsenite treatment. […] TDP-43, phosphoTDP-43, PARP, and actin in the soluble and insoluble fraction were analyzed by western blotting. […]

[2] = tested on: mice with LPS plus sciatic nerve axotomy; assay: LPS (1 mg/kg daily) plus sciatic nerve axotomy in mice: microglia activation and motor neuron death; format: in vivo, mouse; conditions: LPS 1 mg/kg daily i.p. plus axotomy
Procedure: FIG. 15: Example peptide D reduces microglia activation in lumbar spinal cord of mice with LPS plus sciatic nerve axotomy. Mice underwent LPS administration (1 mg/kg, daily, i.p.) plus sciatic nerve axotomy on day 0 and tissues were collected and fixed on day 7 post-surgery. Iba-1 staining of lumbar spinal cord of mice in each indicated group were counterstained with DAPI. 20 mg/kg of peptide D was injected daily through the i.p. route.
FIG. 16: Example peptide D prevents motor neuron death in ventral horn of spinal cord (L6) of mice with LPS plus sciatic nerve axotomy. Mice underwent LPS treatment (1 mg/kg, daily, i.p.) plus sciatic nerve axotomy on day 0 and tissue was collected and fixed on day 7 post-surgery. Markers of (A) ChAT staining (red) indicating motor neurons and (B) NeuN staining (green) counterstained with DAPI indicated alpha motor neurons in ventral horn of mice in each group. […]
Although neurodegeneration was detected in spinal cord of mice treated with a high dose of LPS (5 mg/kg, i.p.) plus sciatic nerve axotomy, motor neuron death was not observed in this model. […]
Since LPS causes systematic inflammation, microglia activation in ventral horn of spinal cord was first detected by staining with an Iba-1 antibody. […]

TDP-43 [3] = molecular target: TDP-43 (Mus musculus, UniProt Q921F2); assay: LPS (1 mg/kg daily, 7 days) plus sciatic nerve axotomy in mice: TDP-43 aggregation by western blotting; format: in vivo; set-up: from tissue; host or cells: ventral lumbosacral spinal cord of mice, axotomy side; conditions: LPS 1 mg/kg daily i.p. for 7 days plus axotomy; 20 mg/kg i.p.; vs control mice
Sequence of TDP-43 (Mus musculus, UniProt Q921F2) (Q921F2 whole entry): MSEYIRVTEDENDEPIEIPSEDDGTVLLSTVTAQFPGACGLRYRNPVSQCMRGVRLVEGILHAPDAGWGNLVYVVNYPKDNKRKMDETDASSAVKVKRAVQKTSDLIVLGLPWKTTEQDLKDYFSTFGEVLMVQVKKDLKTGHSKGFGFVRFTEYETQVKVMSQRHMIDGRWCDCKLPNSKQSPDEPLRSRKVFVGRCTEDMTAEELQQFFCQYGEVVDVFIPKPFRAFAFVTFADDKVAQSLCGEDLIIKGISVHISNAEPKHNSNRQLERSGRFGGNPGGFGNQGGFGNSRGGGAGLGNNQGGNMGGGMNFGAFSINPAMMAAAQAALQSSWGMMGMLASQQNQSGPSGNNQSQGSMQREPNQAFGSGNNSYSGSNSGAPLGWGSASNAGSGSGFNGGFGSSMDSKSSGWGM
Procedure: FIG. 17: Example peptide D reduces TDP-43 aggregates in lumbar spinal cord of mice with sciatic nerve axotomy and 7 days of LPS administration. Mice underwent sciatic nerve axotomy (day 0) and LPS (1 mg/kg, daily, i.p.) administration for 7 days (days 0-7). TDP-43 aggregation in lumbar spinal cord was evaluated by western blotting.
Since LPS causes systematic inflammation, microglia activation in ventral horn of spinal cord was first detected by staining with an Iba-1 antibody. […] In this setting, motor neuron loss in the lower limb motoneuron group in L5/6 of spinal cord was observed, as confirmed by staining with ChAT and NeuN antibodies. […] TDP-43 and phosphoTDP-43 insolubility in lumbar spinal cord was also confirmed by western blotting.

Sequence of TDP-43 (Homo sapiens, UniProt Q13148) (Q13148 whole entry): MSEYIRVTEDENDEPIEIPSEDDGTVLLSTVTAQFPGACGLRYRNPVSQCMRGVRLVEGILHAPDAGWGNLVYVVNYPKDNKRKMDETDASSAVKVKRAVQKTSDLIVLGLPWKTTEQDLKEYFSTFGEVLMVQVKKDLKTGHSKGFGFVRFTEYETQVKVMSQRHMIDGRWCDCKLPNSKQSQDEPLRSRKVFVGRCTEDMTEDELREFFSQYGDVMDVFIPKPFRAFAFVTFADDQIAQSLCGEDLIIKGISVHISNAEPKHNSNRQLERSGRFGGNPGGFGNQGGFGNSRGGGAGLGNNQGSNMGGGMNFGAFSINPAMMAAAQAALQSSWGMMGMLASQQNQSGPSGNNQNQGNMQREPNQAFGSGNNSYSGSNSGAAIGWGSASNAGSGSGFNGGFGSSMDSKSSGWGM

peptide D: candidate peptide from a CK-1δ binding region for TDP-43, truncated HIV-1 TAT domain added at the N-terminal (YGRKKRRQRRRGFSYDYVFDWNMLK)
PARP cleavage caused by sodium arsenite (TDP-43 [1]): less PARP cleavage | insoluble TDP-43 and phosphoTDP-43 (TDP-43 [1]): reducing | general microglia activation in lumbar spinal cord (Iba-1) ([2]; day 7, 20 mg/kg daily i.p.): reduced | motor neuron death (ChAT and NeuN staining) ([2]; day 7 post-surgery): less motor neuron death | TDP-43 aggregation in lumbar spinal cord (TDP-43 [3]): reduced
